In the supplement of paper PMC9170038:

What follows are sequences tested on MS2 coat protein (assay: apparent KD of MS2 coat protein; higher = weaker reporter binding). Details: Eterna round: R107; input ligand: none.
Procedure, shortened: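 In 100 mM Tris-HCl pH 7.5 with 80 mM KCl and 4 mM MgCl2, and without or with constant ligand, SNAP-549-labelled MS2 coat protein was titrated in twofold steps from 0.7 or 1.5 nM to 3 µM. Per-step times went from 0.8–1.5 h down to 10–20 min. The RNA switches were transcribed on-chip from Illumina sequencing clusters, and apparent KD is the per-design median of normalised cluster binding-curve fits.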
In the case of “GCAUCCUAGUCGGCCGCCACUGGUACGAAUACCUUCACCCGUGUGCACAUGAGGAUCACCCAUGUCAGGACCGGGACUAGGAUGC [SSTryp B #23]”, the “apparent KD of MS2 coat protein” value is reported as 9.22 nM.
In the case of “CCUAUCCAGUCGGCCGCCACUGAAAACAGUGGGUGAACAUGAGGAUCACCCAUGUAGGAUUUCCACAGGACCGGGACUGUAUAGG [Ex Tryptophan B 24]”, the “apparent KD of MS2 coat protein” value is reported as 933 nM.
In the case of “AAUAAUAAGGCGGCCGCCACUAAACAUGAGGAUCACCCAUGUCUCGCGGGCUUGCGUUGGGAAAGUAGGACCGGGCCAAUAAUAA [Exclusion - Tryptophan B (Freestyle 8)]”, the “apparent KD of MS2 coat protein” value is reported as 15.7 nM.
In the case of “AUGUCGUUGAAUAUAGCGGCUUGGAGUGAUACCAGAAUGAUCCAAUUCCCUUGGCAGCAUUACAUGAGGAUCACCCAUGUUCCAG [SSTheo A #23]”, the “apparent KD of MS2 coat protein” value is reported as 37.1 nM.
For “CUUAUAUAUAGAAGGAGCGACAUGAGGAUCACCCAUGUCUACCACGUCGAAAGACGCUCAUGUCAGGUAGGUCGCUAUAUAUAAG [Astros-Eli-mod3]”, the “apparent KD of MS2 coat protein” value was 152 nM.
“AAUACCGGUCCUCGAAGCAUGGGUGAUCAACGAGGACCGGUACGGCCGCCACUCGAUAACAUGAGGAUCACCCAUGUAAUAAUAA [|T'-M'-Trp-Ms2|_Design5]” was tested, and the “apparent KD of MS2 coat protein” value was 313 nM.
With “UCGGGCAGAGCGGCCGCCACUGUAUGGCAUGCGGAUGAAGGAACAUGAGGAUCACCCAUGUAGAUUAGGACCGGGCUUGCGGAGA [p''pmullin]” the “apparent KD of MS2 coat protein” value was 19.8 nM.
For “UAUAUAGAUGGACGUCAUCUAGAUGCAGAAGGAGCGUAGGAAACUACAGGUAGGUCGCUGAGGUACAUGAGGAUCACCCAUGUAG [SSArg A #21 Slice of Pi]”, the “apparent KD of MS2 coat protein” value was 18.9 nM.
“UUUUUUAACUGAAGGAGCGUCACAUGAGGAUCACCCAUGUAUUAGAUGAGAAUGAUCUUGUGGCAGGUAGGUCGCAGAGGAAGGG [#30 Exclusion - Arginine B]” was tested, and the “apparent KD of MS2 coat protein” value was 327 nM.
With “UUAUGCAGGUCGGCCGCCACUACACACAUGAGGAUCACCCAUGUAGUUACUGGGUGAAGUGGCAGUAGGACCGGGACCCGCACAC [Brourdmod22]” the “apparent KD of MS2 coat protein” value was 485 nM.
“GGGCAAGGUGCCGCCUUCGCCCACUGAGAAGGAGCGCAGGGUACUGCAGGUAGGUCGCUCAGACAUGAGGAUCACCCAUGUAGGA [Esislees]” was tested, and the “apparent KD of MS2 coat protein” value was 54.5 nM.
With “AUAUUAAUCGGAAGGAGCGGUACAUGAGGAUCACCCAUGUGGUAAGCUAGCAGAUCCCGUUACCAGGUAGGUCGCCGAGUUAUGA [XArg-B17]” the “apparent KD of MS2 coat protein” value was 201 nM.
With “CUCCUGGGAGCGGCCGCCACUGGAGGCCUUGCGCGACAUGAGGAUCACCCAUGUUGUCCCGGCCUCAGGACCGGGUUCGCGCGAG [Same State - Tryptophan B Attempt #1]” the “apparent KD of MS2 coat protein” value was 8.09 nM.
In the case of “GCAUGUUGGUGGUUUCUGCGAAGGCGGAAUCGAGGACCGGUACGGCCGCCACUCGGCGACAUGAGGAUCACCCAUGUGGUUAGGA [Exclusion - Tryptophan A (Freestyle 9)]”, the “apparent KD of MS2 coat protein” value is reported as 462 nM.
“CAGCACAUGAGGAUCACCCAUGUGAGGGAUACCAGCUCAGGCGUGGGCCCUUGGCAGCUCUGUGGCUGACGAAAGUCAGCCUCUG [#18 SameState-TheophyllineA]” was tested, and the “apparent KD of MS2 coat protein” value was 14.6 nM.
“GCACAAGAUGGAAGGAGCGCUGGUAUAAGUCACAUGAGGAUCACCCAUGUGCUCCUUGCCGAGCAGGUAGGUCGCCAUCUUGUGC [SSAB NP+V+V2 #5]” was tested, and the “apparent KD of MS2 coat protein” value was 42 nM.
With “GCAUCCUAGUCGGCCGCCACUGGGUGUACCCAGUGCUGGUACAAACAUGAGGAUCACCCAUGUACCAGGACCGGGACUAGGAUGC [(Trp1)-(MT2)''-(T1)'-(MT2)'-(Ms2)-(Trp2)_Design4]” the “apparent KD of MS2 coat protein” value was 15.6 nM.
For “UGAUAUAGGGAGCCGUAUCAGAAACCUGAAGGAGCGCCGGAAAAGGCAGGUAGGUCGCGGGAACAUGAGGAUCACCCAUGUAUUC [dancer_small]”, the “apparent KD of MS2 coat protein” value was 19 nM.
With “ACAUGAGGAUCACCCAUGUAAUACCGGGAAGGAGCGCGUAAGGACGCAGGUAGGUCGCUCGGCGUCCGGCCGCAAGGCCGGACGA [#1 Same State - Arginine A Attempt #12 (HarryS)]” the “apparent KD of MS2 coat protein” value was 14.4 nM.
In the case of “AUGCAUGUCAGAAGGAGCGUCAGUAACAUGAGGAUCACCCAUGUAACAUUGAAUUCGAUGAGACAGGUAGGUCGCUGAAUAGUAA [JR_SSArginiB_Sub019]”, the “apparent KD of MS2 coat protein” value is reported as 30.6 nM.

Same assay, conditions: Eterna round: R107; input ligand: theophylline 20 uM
With “GGGUCGCGUUCGGCCGCCACUUGGAAACAUGAGGAUCACCCAUGUCAUAUGGUGGGACAUGUUGUAAGGACCGGGAACCGUCCUA [theeternabot_exclusion_MS2_Trp_B_11]” the “apparent KD of MS2 coat protein” value was 82.1 nM.
In the case of “GCUGUAAGUGCAGAUACCAGCAGGUGAUAUUUCAUAUGACAUGAGGAUCACCCAUGUAACUGCCCUUGGCAGCUGCACUUACAGC [SSTHB #9]”, the “apparent KD of MS2 coat protein” value is reported as 193 nM.
“CUAGAUGGAAACGUCUGGACGCACAAGCGACGAGGACCGGUACGGCCGCCACUCGAAGAGUGGUGGACAUGAGGAUCACCCAUGU [Design 4 MOD]” was tested, and the “apparent KD of MS2 coat protein” value was 87.4 nM.
“GCAUCCUAGUCGGCCGCCACUGGUACGAAUACCUUCACCCGUGUGCACAUGAGGAUCACCCAUGUCAGGACCGGGACUAGGAUGC [SSTryp B #23]” was tested, and the “apparent KD of MS2 coat protein” value was 13.8 nM.
“CCUAUCCAGUCGGCCGCCACUGAAAACAGUGGGUGAACAUGAGGAUCACCCAUGUAGGAUUUCCACAGGACCGGGACUGUAUAGG [Ex Tryptophan B 24]” was tested, and the “apparent KD of MS2 coat protein” value was 1300 nM.
“AAUAAUAAGGCGGCCGCCACUAAACAUGAGGAUCACCCAUGUCUCGCGGGCUUGCGUUGGGAAAGUAGGACCGGGCCAAUAAUAA [Exclusion - Tryptophan B (Freestyle 8)]” was tested, and the “apparent KD of MS2 coat protein” value was 20.6 nM.
For “AUGUCGUUGAAUAUAGCGGCUUGGAGUGAUACCAGAAUGAUCCAAUUCCCUUGGCAGCAUUACAUGAGGAUCACCCAUGUUCCAG [SSTheo A #23]”, the “apparent KD of MS2 coat protein” value was 55.5 nM.
With “CUUAUAUAUAGAAGGAGCGACAUGAGGAUCACCCAUGUCUACCACGUCGAAAGACGCUCAUGUCAGGUAGGUCGCUAUAUAUAAG [Astros-Eli-mod3]” the “apparent KD of MS2 coat protein” value was 138 nM.
With “AAUACCGGUCCUCGAAGCAUGGGUGAUCAACGAGGACCGGUACGGCCGCCACUCGAUAACAUGAGGAUCACCCAUGUAAUAAUAA [|T'-M'-Trp-Ms2|_Design5]” the “apparent KD of MS2 coat protein” value was 395 nM.
In the case of “UCGGGCAGAGCGGCCGCCACUGUAUGGCAUGCGGAUGAAGGAACAUGAGGAUCACCCAUGUAGAUUAGGACCGGGCUUGCGGAGA [p''pmullin]”, the “apparent KD of MS2 coat protein” value is reported as 22.9 nM.
In the case of “UAUAUAGAUGGACGUCAUCUAGAUGCAGAAGGAGCGUAGGAAACUACAGGUAGGUCGCUGAGGUACAUGAGGAUCACCCAUGUAG [SSArg A #21 Slice of Pi]”, the “apparent KD of MS2 coat protein” value is reported as 28.8 nM.
In the case of “GCAUCAUGAACGGCCGCCACUAAGGAAUGAGCGGCUCUUGCGAUACAUGAGGAUCACCCAUGUCUUAGGACCGGGUUCAUUGUCA [theeternabot_sameState_MS2_Trp_B_49]”, the “apparent KD of MS2 coat protein” value is reported as 343 nM.
“UGUAUUACGAAAGUAGUACAUCGUGUUCGACGAGGACCGGUACGGCCGCCACUCGGACAUGAGGAUCACCCAUGUAGCGAAAGCU [Tryptophan A 25]” was tested, and the “apparent KD of MS2 coat protein” value was 354 nM.
“UGUAACAUGAGGAUCACCCAUGUGCACGAUACCAGCUUCGAAAGAGGCCCUUGGCAGCGUAUGCGUAAGCUGUAUAAUAUAUAUC [#28 SameState-TheophyllineA]” was tested, and the “apparent KD of MS2 coat protein” value was 14.4 nM.
In the case of “UUUUUUAACUGAAGGAGCGUCACAUGAGGAUCACCCAUGUAUUAGAUGAGAAUGAUCUUGUGGCAGGUAGGUCGCAGAGGAAGGG [#30 Exclusion - Arginine B]”, the “apparent KD of MS2 coat protein” value is reported as 167 nM.
With “GGUCUGAAAACCGAUCAAAGAUCGGAAGAUACCAGAGGGUGAUCCCUCCCUUGGCAGCUUCACAUGAGGAUCACCCAUGUAGACC [Omei inspired #BothOrNeither]” the “apparent KD of MS2 coat protein” value was 188 nM.
In the case of “UGUAUGGACUGAAGGAGCGGGUUGAUAUCAUGAGGAUCACCCAUGGAAAAGGCGAAAGCCGCCCAGGUAGGUCGCAGUCCAUACU”, the “apparent KD of MS2 coat protein” value is reported as 38 nM.
In the case of “UUAUGCAGGUCGGCCGCCACUACACACAUGAGGAUCACCCAUGUAGUUACUGGGUGAAGUGGCAGUAGGACCGGGACCCGCACAC [Brourdmod22]”, the “apparent KD of MS2 coat protein” value is reported as 561 nM.
For “AGCGCUAUGCAUGAUACCAGCUACAUGAGGAUCACCCAUGUGCGUCAGAAAUGACUGUGUAGCCCUUGGCAGCAUAAAGCAUGUA [Exclusion - Theophylline B (Freestyle 9)]”, the “apparent KD of MS2 coat protein” value was 24.1 nM.
